Data: PMC8854693

Biological target: intact GluN1b-GluN2B NMDA receptor (rat) (UniProt Q00960)
Sequence (Q00960 whole entry, looked up): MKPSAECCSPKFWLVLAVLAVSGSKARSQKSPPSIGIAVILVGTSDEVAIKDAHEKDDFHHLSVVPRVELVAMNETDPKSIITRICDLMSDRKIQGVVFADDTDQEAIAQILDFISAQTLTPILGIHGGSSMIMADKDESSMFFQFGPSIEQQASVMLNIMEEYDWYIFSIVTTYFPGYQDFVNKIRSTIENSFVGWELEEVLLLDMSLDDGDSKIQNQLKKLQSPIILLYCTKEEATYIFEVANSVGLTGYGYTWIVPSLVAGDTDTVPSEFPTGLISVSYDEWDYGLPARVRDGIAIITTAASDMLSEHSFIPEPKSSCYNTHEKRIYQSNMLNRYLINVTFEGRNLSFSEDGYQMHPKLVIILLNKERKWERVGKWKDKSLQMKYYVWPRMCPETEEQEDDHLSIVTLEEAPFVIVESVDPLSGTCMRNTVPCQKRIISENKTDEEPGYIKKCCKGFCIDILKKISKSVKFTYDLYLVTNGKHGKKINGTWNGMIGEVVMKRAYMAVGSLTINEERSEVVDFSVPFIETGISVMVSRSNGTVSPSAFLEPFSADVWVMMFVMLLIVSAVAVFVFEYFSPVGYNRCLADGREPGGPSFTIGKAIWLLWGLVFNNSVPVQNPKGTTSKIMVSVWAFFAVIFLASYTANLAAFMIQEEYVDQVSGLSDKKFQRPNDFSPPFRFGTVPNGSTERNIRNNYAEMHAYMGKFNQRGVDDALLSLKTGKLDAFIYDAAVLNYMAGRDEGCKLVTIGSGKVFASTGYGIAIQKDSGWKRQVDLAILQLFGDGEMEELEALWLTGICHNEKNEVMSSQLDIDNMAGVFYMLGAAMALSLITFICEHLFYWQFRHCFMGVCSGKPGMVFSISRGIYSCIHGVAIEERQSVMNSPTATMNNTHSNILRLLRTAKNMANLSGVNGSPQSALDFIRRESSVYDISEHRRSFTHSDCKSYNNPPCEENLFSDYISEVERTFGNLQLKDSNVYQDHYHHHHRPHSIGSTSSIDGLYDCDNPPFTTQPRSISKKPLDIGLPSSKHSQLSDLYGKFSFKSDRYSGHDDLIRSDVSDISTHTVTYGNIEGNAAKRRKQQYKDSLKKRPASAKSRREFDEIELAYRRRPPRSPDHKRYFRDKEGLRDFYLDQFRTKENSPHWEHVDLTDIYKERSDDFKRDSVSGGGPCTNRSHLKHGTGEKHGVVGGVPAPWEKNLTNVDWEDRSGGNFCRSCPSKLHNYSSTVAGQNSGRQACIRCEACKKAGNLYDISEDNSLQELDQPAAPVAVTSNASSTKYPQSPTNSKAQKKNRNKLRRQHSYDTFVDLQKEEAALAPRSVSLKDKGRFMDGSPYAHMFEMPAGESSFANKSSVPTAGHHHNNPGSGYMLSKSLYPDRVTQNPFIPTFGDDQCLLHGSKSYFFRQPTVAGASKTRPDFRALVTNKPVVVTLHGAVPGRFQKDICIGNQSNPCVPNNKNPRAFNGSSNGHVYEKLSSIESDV

B1: Fv2, variable fragment (Fv) of IgG2 (protein)
VH: DVKLQESGGGLVQPGGSLKLSCAASGFTFSSYTMSWVRQTPEKRLEWVAYISNGGGGTYYPDTVKGRFTISRDNAKNTLYLQMNSLKEDTAMYYCARPSRGGSSYWYFDVWGAGTTVTVSS
VL: DIQMTQSPSSLSASLGGKVTITCKASQDINKYIAWYQHKPGKGPRLLIHYTSSLQPGIPSRFSGSGSGRDYSFSISNLEPEDIATYYCLQYDNLYTFGGGTKLEIK
- GluN1b-GluN2B NMDAR current, TEVC on Xenopus oocytes, Fv2 at 0.1 mg/ml (% of maximum current): 60
